Biological target: T1, murine ELMO2 full-length, wild type (mouse, UniProt Q8BHL5 1-732)
T1 construct: ELMO2, murine cDNA cloned into pGEX4T1; called full-length in the ITC methods; Thrombin was added to the glutathione eluates overnight before size exclusion; also called ELMO2 WT; WT ELMO2; source: E. coli BL21 codon+, purified (glutathione resin, thrombin, S75 size exclusion)
T1 sequence (looked up): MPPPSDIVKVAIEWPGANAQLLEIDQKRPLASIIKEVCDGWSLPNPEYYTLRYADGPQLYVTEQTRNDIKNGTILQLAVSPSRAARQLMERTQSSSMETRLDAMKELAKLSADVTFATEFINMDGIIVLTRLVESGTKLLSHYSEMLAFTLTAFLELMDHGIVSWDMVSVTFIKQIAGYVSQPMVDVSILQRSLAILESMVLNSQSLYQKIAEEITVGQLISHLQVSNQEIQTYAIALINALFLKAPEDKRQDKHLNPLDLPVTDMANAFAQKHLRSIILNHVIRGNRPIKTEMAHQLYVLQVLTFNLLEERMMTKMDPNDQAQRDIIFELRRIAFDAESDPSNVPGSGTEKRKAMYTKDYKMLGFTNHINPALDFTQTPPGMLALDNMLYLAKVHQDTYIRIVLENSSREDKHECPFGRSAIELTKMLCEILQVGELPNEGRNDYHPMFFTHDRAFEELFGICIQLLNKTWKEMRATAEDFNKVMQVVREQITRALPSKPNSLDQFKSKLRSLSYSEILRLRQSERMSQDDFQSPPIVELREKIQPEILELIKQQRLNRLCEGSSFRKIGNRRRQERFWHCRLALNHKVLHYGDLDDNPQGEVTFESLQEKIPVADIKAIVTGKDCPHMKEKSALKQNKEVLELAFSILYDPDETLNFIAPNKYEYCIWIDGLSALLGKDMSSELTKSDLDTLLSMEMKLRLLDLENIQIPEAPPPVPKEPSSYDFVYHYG
Experiment: ITC; 500 μM RHOG titrated into 40 μM Elmo2 full-length (WT or L43A); MicroCal ITC200, 25 °C; 20 mM Tris pH 7.5, 100 mM NaCl, 5 mM MgCl2, 1 mM DTT; one-site binding model
Conditions: both partners purified

Kd: 10.3 µM
B1: human RHOG (residues 1-179) (domain or fragment)
chain: not shown
notes: RHOG, human, residues 1-179, cloned into pDEST17 with a thrombin cleavage site between the 6xHIS-tag and the GTPase; For NMR uniformly 15N-labelled (M9 medium with 15NH4Cl) and loaded with GMPPNP; For ITC made in LB; also called RHOG-GMPPNP; HIS-RHOG; source: E. coli BL21 codon+, purified (Ni-NTA, thrombin cleavage, S75 size exclusion)

Source: publication PMC9674853, “Biasing the conformation of ELMO2 reveals that myoblast fusion can be exploited to improve muscle regeneration” (Nature Communications, 2022)
